# Laboratory results published in publication PMC11682927.
# Biological target: His-BACH1-BTB (amino acids 7-128) (human) (UniProt O14867)
# Test: SEC-MALS
# Chain of Tag-free FBXO22-SKP1 complex (Q8NEZ5 whole entry): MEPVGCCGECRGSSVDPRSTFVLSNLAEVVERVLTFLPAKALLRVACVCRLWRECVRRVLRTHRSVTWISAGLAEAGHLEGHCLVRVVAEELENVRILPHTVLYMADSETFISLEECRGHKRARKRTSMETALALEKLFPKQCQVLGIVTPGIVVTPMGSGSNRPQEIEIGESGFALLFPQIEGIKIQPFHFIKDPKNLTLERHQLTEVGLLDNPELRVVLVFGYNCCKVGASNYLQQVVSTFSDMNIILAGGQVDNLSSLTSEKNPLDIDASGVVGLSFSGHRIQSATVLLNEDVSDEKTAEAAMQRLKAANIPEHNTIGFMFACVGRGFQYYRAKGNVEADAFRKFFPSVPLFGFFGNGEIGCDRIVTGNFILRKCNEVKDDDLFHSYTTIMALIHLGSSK
# Chain of Tag-free FBXO22-SKP1 complex (P63208 whole entry): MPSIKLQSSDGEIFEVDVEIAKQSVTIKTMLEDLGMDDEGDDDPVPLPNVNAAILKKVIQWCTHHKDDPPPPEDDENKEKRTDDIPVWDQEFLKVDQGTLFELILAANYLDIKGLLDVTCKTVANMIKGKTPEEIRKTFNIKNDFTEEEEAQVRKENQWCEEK
# Chain of His-BACH1-BTB (amino acids 7-128) (human) (O14867 7-128): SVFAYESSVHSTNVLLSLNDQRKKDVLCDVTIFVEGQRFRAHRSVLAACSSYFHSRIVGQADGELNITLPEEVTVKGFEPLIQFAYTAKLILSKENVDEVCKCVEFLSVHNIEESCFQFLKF
substance,measurement,value
Tag-free FBXO22-SKP1 complex (from UniProt Q8NEZ5 1-403; P63208 1-163),stoichiometry N (FBXO22-SKP1 per BACH1 BTB dimer),1
